Test results published in patent US5770691A, “Discriminatory substrates for MMP hydrolysis” (Regents of the University of Minnesota, priority 1995, dated 1998).

Experiments:
[1] = system: T1, CCC[C@H](NC(=O)[C@H](C)NC(=O)[C@H](Cc1ccc(O)cc1)NC(=O)[C@@H]1CCCN1C(=O)[C@H](CCCCN)NC(=O)[C@@H]1CCCN1C(=O)[C@H](CCCNC(=N)N)NC(=O)Cc1cc(=O)oc2cc(OC)ccc12)C(=O)N[C@@H](Cc1c[nH]c2ccccc12)C(=O)N[C@@H](CCSC)C(=O)N[C@@H](CCCCNc1ccc([N+](=O)[O-])cc1[N+](=O)[O-])C(N)=O; assay: Fluorometric hydrolysis of synthetic Mca/Lys(Dnp) substrates by MMP-9; assay type: biochemical; conditions: other: MMP-9, 37° C., pH 7.5
T1 construct: made in house; host or cells: native secreted protein purified from culture medium of HT-1080 cells
Excerpt: (§1) All MMPs were purified in zymogen form. ProMMP-1 (Suzuki et al., Biochem., 29, 10261 (1990)), proMMP-2 (Okada et al., Eur. J. Biochem., 194, 721 (1990)), and proMMP-3 (Ito et al., Arch. Biochem. Biophys., 267, 211 (1988)) were purified from the culture medium of human rheumatoid synovial cells stimulated with rabbit macrophage-conditioned medium. ProMMP-9 was purified from the culture medium of HT-1080 cells as described in Morodomi et al., Biochem. J., 285, 603 (1992). ProMMP-2 and proMMP-9 were activated by reacting with 1 mM 4-aminophenylmercuric acetate at 37° C. for 45 minutes and 32 hours, respectively. ProMMP-1 was activated by reacting with 1 mM 4-aminophenylmercuric acetate and an equimolar amount of MMP-3 at 37° C. for 6 hours. After activation, MMP-3 was completely removed from MMP-1 by affinity chromatography using an anti-MMP-3 IgG Affi-Gel 10 column. The resin, Affi-Gel 10 (Biorad, Emoryville, Calif.), was coupled to anti-MMP-3 IgG (Okada et al., Annals of Rheumat. Dis., 48, 645 (1989)) per the manufacturer's protocol. Pro-MMP-3 was activated by reacting with 5 μg/mL chymotrypsin at 37° C. for 2 hours. Chymotrypsin was inactivated with 2 mM diisopropylfluorophosphate. The amounts of active MMP-1, MMP-2, and MMP-3 were determined by titration with tissue inhibitor of metalloproteinase-1(TIMP1) over a concentration range of 0.1-3 μg/mL, while the amount of active MMP-9 was determined by titration with TIMP-2 (0.1-3 μg/mL). TIMP-1 was isolated from the medium of HT-1080 cells as described in Morodomi et al., Biochem J., 285, 603 (1992).
(§2) Substrates were prepared as 10 mM stock solutions in dimethylsulfoxide (DMSO). Fluorescent assays were performed at λex =325 nm and λem =393 nm, which should encounter no interference from Trp residues, using a Hitachi fluorescence spectrophotometer F-3010. Initial total hydrolysis assays were run at a substrate concentration of […] to avoid filtering effects. The change in fluorescence at this concentration was 110 based on total hydrolysis of 1 μM substrate. A typical assay was carried out by incubating 100 μL of various concentrations of a substrate with 10 μL of an enzyme solution (2-20 nM) in 50 mM Tris-HCl, pH 7.5, 0.15M NaCl, 10 mM CaCl2, 0.05% Brij 35, 0.02% NaN3. The reaction was stopped by addition of 900 μl of 3% (v/v) glacial acetic acid. MMP-3 activity at pH 6.0 was measured in 50 mM sodium acetate buffer, pH 6.0, instead of Tris-HCl buffer. The amount of substrate hydrolysis was calculated based on the fluorescence values of the Mca-Arg-Pro-Lys-Pro-Gln standard solution after substraction of the reaction blank value (stopping solution added before the enzyme). Individual kinetic parameters (kcat and KM) were determined over a substrate concentration range of 2.5-75 μM and calculated by double reciprocal plots.

[2] = system: T2, CCC[C@H](NC(=O)[C@H](CCC(=O)O)NC(=O)[C@@H](NC(=O)[C@@H]1CCCN1C(=O)[C@H](CCCCN)NC(=O)[C@@H]1CCCN1C(=O)[C@H](CCCNC(=N)N)NC(=O)Cc1cc(=O)oc2cc(OC)ccc12)C(C)C)C(=O)N[C@@H](Cc1c[nH]c2ccccc12)C(=O)N[C@@H](CCCNC(=N)N)C(=O)N[C@@H](CCCCNc1ccc([N+](=O)[O-])cc1[N+](=O)[O-])C(N)=O; assay: as above; assay type: biochemical; conditions: other: MMP-9, 37° C., pH 7.5
T2 construct: made in house; host or cells: native secreted protein purified from culture medium of HT-1080 cells
Excerpt: as §1, §2

[3] = system: T3, COc1ccc2c(CC(=O)N3CCC[C@H]3C(=O)N[C@@H](CCCCN)C(=O)N3CCC[C@H]3C(=O)N[C@@H](CCC(N)=O)C(=O)N[C@@H](CCC(N)=O)C(=O)N[C@@H](Cc3ccccc3)C(=O)N[C@@H](Cc3ccccc3)C(=O)NCC(=O)N[C@@H](CC(C)C)C(=O)N[C@@H](CCCCNc3ccc([N+](=O)[O-])cc3[N+](=O)[O-])C(=O)NCC(=O)O)cc(=O)oc2c1; assay: as above; assay type: biochemical; conditions: other: MMP-9, 37° C., pH 7.5
T3 construct: made in house; host or cells: native secreted protein purified from culture medium of HT-1080 cells
Excerpt: as §1, §2

[4] = system: T4, CCC[C@H](NC(=O)[C@H](C)NC(=O)[C@H](Cc1ccc(O)cc1)NC(=O)[C@@H]1CCCN1C(=O)[C@H](CCCCN)NC(=O)[C@@H]1CCCN1C(=O)[C@H](CCCNC(=N)N)NC(=O)Cc1cc(=O)oc2cc(OC)ccc12)C(=O)N[C@@H](Cc1c[nH]c2ccccc12)C(=O)N[C@@H](CCSC)C(=O)N[C@@H](CCCCNc1ccc([N+](=O)[O-])cc1[N+](=O)[O-])C(N)=O; assay: Fluorometric hydrolysis of synthetic Mca/Lys(Dnp) substrates by MMP-3; assay type: biochemical, human; conditions: other: MMP-3, 37° C., pH 7.5; 37.0 °C
T4 construct: made in house; host or cells: native secreted protein purified from culture medium of human rheumatoid synovial cells
Excerpt: as §1, §2

[5] = system: T5, CCC[C@H](NC(=O)[C@H](CCC(=O)O)NC(=O)[C@@H](NC(=O)[C@@H]1CCCN1C(=O)[C@H](CCCCN)NC(=O)[C@@H]1CCCN1C(=O)[C@H](CCCNC(=N)N)NC(=O)Cc1cc(=O)oc2cc(OC)ccc12)C(C)C)C(=O)N[C@@H](Cc1c[nH]c2ccccc12)C(=O)N[C@@H](CCCNC(=N)N)C(=O)N[C@@H](CCCCNc1ccc([N+](=O)[O-])cc1[N+](=O)[O-])C(N)=O; assay: as above; assay type: biochemical, human
T5 construct: made in house; host or cells: native secreted protein purified from culture medium of human rheumatoid synovial cells
Excerpt: as §1, §2

[6] = system: T6, COc1ccc2c(CC(=O)N3CCC[C@H]3C(=O)N[C@@H](CCCCN)C(=O)N3CCC[C@H]3C(=O)N[C@@H](CCC(N)=O)C(=O)N[C@@H](CCC(N)=O)C(=O)N[C@@H](Cc3ccccc3)C(=O)N[C@@H](Cc3ccccc3)C(=O)NCC(=O)N[C@@H](CC(C)C)C(=O)N[C@@H](CCCCNc3ccc([N+](=O)[O-])cc3[N+](=O)[O-])C(=O)NCC(=O)O)cc(=O)oc2c1; assay: as above; assay type: biochemical, human; conditions: other: MMP-3, 37° C., pH 7.5; 37.0 °C
T6 construct: made in house; host or cells: native secreted protein purified from culture medium of human rheumatoid synovial cells
Excerpt: as §1, §2

[7] = other: MMP-3, 25° C., pH 7.5, 25.0 °C
[8] = other: MMP-3, 37° C., pH 7.5, 37.0 °C
[9] = other: MMP-3, pH 6.0 (50 mM sodium acetate buffer), 37° C., pH 6.0, 37.0 °C

MMP-3 (Homo sapiens), sequence (chain, as listed by the source): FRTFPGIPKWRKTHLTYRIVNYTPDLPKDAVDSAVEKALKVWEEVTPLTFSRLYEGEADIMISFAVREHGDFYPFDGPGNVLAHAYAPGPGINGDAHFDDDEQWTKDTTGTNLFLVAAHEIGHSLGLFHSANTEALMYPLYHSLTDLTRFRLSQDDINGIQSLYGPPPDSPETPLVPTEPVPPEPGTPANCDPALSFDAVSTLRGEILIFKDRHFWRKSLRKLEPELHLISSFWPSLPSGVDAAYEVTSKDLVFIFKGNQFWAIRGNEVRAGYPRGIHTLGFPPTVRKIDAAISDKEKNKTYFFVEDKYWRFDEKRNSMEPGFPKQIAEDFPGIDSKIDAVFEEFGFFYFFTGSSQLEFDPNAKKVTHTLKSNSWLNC
MMP-9 (Homo sapiens), sequence (chain, as listed by the source): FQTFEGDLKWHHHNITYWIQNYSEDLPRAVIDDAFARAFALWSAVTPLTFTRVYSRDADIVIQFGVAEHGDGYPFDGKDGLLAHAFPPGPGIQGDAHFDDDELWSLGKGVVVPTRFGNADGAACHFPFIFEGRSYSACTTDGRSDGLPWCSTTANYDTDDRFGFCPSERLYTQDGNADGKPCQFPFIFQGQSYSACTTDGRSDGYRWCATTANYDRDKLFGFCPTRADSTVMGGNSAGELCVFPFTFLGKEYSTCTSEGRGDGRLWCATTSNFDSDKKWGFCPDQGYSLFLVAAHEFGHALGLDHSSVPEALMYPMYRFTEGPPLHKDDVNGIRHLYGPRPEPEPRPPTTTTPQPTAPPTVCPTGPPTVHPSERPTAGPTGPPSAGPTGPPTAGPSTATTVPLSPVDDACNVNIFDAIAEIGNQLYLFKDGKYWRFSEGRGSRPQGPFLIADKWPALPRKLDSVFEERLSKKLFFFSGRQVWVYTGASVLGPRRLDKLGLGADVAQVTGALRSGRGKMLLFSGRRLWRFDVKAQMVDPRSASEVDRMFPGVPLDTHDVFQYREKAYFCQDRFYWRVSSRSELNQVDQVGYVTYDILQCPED

MMP-9 (Homo sapiens)
Km [1]: 25 µM | kcat [1]: 1.38 S^-1 | kcat/Km [1]: 55,300 S^-1 M^-1 | Km [2]: 28 µM | kcat [2]: 0.282 S^-1 | kcat/Km [2]: 10,100 S^-1 M^-1 | Km [3]: 45 µM | kcat [3]: 0.18 S^-1 | kcat/Km [3]: 4,000 S^-1 M^-1

MMP-3 (Homo sapiens)
Km [4]: 66 µM | kcat [4]: 3.95 S^-1 | kcat/Km [4]: 59,400 S^-1 M^-1 | Km [5, 7]: 20 µM | kcat [5, 7]: 1.31 S^-1 | kcat/Km [5, 7]: 65,700 S^-1 M^-1 | Km [5, 8]: 25 µM | kcat [5, 8]: 5.40 S^-1 | kcat/Km [5, 8]: 218,000 S^-1 M^-1 | Km [5, 9]: 7.5 µM | kcat [5, 9]: 2.20 S^-1 | kcat/Km [5, 9]: 302,000 S^-1 M^-1 | Km [6]: 50 µM | kcat [6]: 0.53 S^-1 | kcat/Km [6]: 10,900 S^-1 M^-1
